Measurements: patent US20200262877A1, “ION CHANNEL-BINDING PEPTIDES AND METHODS OF USE THEREOF” (priority 2017, published 2020)

Columns and labels:
5HT3a = molecular target: T1, 5HT3a (Homo sapiens, UniProt P46098); test: Ion channel panel (IonWorks Barracuda): 5HT3a; type: cell-based
T1 construct: host or cells: HEK293 or CHO
T1 sequence (P46098 whole entry, looked up): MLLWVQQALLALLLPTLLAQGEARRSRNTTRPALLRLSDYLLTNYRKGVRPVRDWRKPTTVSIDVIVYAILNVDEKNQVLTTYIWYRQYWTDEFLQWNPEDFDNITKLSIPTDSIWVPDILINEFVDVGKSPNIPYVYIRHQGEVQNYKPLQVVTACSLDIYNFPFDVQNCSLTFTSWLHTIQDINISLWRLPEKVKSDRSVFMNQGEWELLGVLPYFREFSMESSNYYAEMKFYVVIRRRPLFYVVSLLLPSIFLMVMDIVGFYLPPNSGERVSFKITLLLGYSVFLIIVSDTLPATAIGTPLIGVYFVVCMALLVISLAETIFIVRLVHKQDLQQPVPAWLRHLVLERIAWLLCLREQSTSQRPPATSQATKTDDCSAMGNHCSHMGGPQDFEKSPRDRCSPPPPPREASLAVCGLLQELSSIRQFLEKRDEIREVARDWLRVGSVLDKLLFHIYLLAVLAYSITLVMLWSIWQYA
Outline: (§1)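 Peptides were tested in duplicate at final 20 μM and 200 nM, with concentration set by amino acid analysis, in HEPES-buffered saline. They were applied for at least 5 min to HEK293 or CHO cells transfected with each channel. Currents were expressed as % inhibition, 1-(Ipeptide/Icontrol)×100, or % activation, Ipeptide/Icontrol×100, against a channel-matched reference compound.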

α3β4 = molecular target: T2, α3β4 (Homo sapiens, UniProt P30926+P32297); test: Ion channel panel (IonWorks Barracuda): α3β4; type: cell-based; settings: 100% = no change, <100% = inhibition
T2 construct: host or cells: HEK293 or CHO
Outline: as §1

α4β2 = molecular target: T3, α4β2 (Homo sapiens, UniProt P17787+P43681); test: Ion channel panel (IonWorks Barracuda): α4β2; type: cell-based; settings: 100% = no change, <100% = inhibition
T3 construct: host or cells: HEK293 or CHO
Outline: as §1

Cav2.1 = molecular target: T4, Cav2.1 (Homo sapiens, UniProt O00555); test: cell-based; settings: 100% = no change, <100% = inhibition
T4 construct: host or cells: HEK293 or CHO
Outline: as §1

Cav2.2 = molecular target: T5, Cav2.2 (Homo sapiens, UniProt Q00975); test: cell-based; settings: 100% = no change, <100% = inhibition
T5 construct: host or cells: HEK293 or CHO
Outline: as §1

Kv2.1 = molecular target: T6, Kv2.1 (Homo sapiens, UniProt Q14721); test: cell-based; settings: 100% = no change, <100% = inhibition
T6 construct: host or cells: HEK293 or CHO
Outline: as §1

GABA = test: Ion channel panel (IonWorks Barracuda): GABA; type: cell-based; settings: 100% = no change, <100% = inhibition
Outline: as §1

Nav1.5 = Nav1.5 (Homo sapiens, UniProt Q14524); test: in vitro; settings: 100% = no change; for Activity of Nav1.5 with peptide, expressed as a percentage of the reference compound: peptide at 0.2 μM; for Activity of Nav1.5 with peptide (percentage of the reference compound): peptide at 20 μM
Outline: as §1

hERG = hERG (Homo sapiens, UniProt Q12809); test: in vitro; settings: 100% = no change, <100% = inhibition
Outline: as §1

Kir2.1 = molecular target: T7, Kir2.1 (Homo sapiens, UniProt P63252); test: Ion channel panel (IonWorks Barracuda): Kir2.1; type: cell-based; settings: 100% = no change, <100% = inhibition
T7 construct: host or cells: HEK293 or CHO
Outline: as §1

Kv1.1 = molecular target: T8, Kv1.1 (Homo sapiens, UniProt Q09470); test: cell-based; type: cell-based; settings: 100% = no change, <100% = inhibition
T8 construct: host or cells: HEK293 or CHO
Outline: as §1

Kv1.2 = molecular target: T9, Kv1.2 (Homo sapiens, UniProt P16389); test: cell-based; type: cell-based; settings: 100% = no change, <100% = inhibition
T9 construct: host or cells: HEK293 or CHO
Outline: as §1

Kv1.3 = molecular target: T10, Kv1.3 (Homo sapiens, UniProt P22001); test: cell-based; type: cell-based; settings: 100% = no change, <100% = inhibition
T10 construct: host or cells: HEK293 or CHO
Outline: as §1

Nav1.7 = molecular target: T11, Nav1.7 (Homo sapiens, UniProt Q15858); test: cell-based; type: cell-based; settings: 100% = no change; for Activity of Nav1.7 with peptide, expressed as a percentage of the reference compound: peptide at 0.2 μM; for Activity of Nav1.7 with peptide (percentage of the reference compound): peptide at 20 μM
T11 construct: host or cells: HEK293 or CHO

NR2A = molecular target: T12, NR2A (Homo sapiens, UniProt Q12879); test: Ion channel panel (IonWorks Barracuda): NR2A; type: cell-based; settings: 100% = no change, <100% = inhibition
T12 construct: host or cells: HEK293 or CHO
Outline: as §1

NR2B = molecular target: T13, NR2B (Homo sapiens, UniProt Q13224); test: Ion channel panel (IonWorks Barracuda): NR2B; type: cell-based; settings: 100% = no change, <100% = inhibition
T13 construct: host or cells: HEK293 or CHO
Outline: as §1

TRPA1 = molecular target: T14, TRPA1 (Homo sapiens, UniProt O75762); test: Ion channel panel (IonWorks Barracuda): TRPA1; type: cell-based; settings: 100% = no change, <100% = inhibition
T14 construct: host or cells: HEK293 or CHO
Outline: as §1

TRPV1 = molecular target: T15, TRPV1 (Homo sapiens, UniProt Q8NER1); test: Ion channel panel (IonWorks Barracuda): TRPV1; type: cell-based; settings: 100% = no change, <100% = inhibition
T15 construct: host or cells: HEK293 or CHO
Outline: as §1

[1] = first of two Nav1.5 columns (probably TP1)
[2] = second of two Nav1.5 columns (probably TP2)
[3] = first of two Nav1.7 columns (probably TP1)
[4] = second of two Nav1.7 columns (probably TP2)

Sequence of Nav1.5 (Q14524 whole entry): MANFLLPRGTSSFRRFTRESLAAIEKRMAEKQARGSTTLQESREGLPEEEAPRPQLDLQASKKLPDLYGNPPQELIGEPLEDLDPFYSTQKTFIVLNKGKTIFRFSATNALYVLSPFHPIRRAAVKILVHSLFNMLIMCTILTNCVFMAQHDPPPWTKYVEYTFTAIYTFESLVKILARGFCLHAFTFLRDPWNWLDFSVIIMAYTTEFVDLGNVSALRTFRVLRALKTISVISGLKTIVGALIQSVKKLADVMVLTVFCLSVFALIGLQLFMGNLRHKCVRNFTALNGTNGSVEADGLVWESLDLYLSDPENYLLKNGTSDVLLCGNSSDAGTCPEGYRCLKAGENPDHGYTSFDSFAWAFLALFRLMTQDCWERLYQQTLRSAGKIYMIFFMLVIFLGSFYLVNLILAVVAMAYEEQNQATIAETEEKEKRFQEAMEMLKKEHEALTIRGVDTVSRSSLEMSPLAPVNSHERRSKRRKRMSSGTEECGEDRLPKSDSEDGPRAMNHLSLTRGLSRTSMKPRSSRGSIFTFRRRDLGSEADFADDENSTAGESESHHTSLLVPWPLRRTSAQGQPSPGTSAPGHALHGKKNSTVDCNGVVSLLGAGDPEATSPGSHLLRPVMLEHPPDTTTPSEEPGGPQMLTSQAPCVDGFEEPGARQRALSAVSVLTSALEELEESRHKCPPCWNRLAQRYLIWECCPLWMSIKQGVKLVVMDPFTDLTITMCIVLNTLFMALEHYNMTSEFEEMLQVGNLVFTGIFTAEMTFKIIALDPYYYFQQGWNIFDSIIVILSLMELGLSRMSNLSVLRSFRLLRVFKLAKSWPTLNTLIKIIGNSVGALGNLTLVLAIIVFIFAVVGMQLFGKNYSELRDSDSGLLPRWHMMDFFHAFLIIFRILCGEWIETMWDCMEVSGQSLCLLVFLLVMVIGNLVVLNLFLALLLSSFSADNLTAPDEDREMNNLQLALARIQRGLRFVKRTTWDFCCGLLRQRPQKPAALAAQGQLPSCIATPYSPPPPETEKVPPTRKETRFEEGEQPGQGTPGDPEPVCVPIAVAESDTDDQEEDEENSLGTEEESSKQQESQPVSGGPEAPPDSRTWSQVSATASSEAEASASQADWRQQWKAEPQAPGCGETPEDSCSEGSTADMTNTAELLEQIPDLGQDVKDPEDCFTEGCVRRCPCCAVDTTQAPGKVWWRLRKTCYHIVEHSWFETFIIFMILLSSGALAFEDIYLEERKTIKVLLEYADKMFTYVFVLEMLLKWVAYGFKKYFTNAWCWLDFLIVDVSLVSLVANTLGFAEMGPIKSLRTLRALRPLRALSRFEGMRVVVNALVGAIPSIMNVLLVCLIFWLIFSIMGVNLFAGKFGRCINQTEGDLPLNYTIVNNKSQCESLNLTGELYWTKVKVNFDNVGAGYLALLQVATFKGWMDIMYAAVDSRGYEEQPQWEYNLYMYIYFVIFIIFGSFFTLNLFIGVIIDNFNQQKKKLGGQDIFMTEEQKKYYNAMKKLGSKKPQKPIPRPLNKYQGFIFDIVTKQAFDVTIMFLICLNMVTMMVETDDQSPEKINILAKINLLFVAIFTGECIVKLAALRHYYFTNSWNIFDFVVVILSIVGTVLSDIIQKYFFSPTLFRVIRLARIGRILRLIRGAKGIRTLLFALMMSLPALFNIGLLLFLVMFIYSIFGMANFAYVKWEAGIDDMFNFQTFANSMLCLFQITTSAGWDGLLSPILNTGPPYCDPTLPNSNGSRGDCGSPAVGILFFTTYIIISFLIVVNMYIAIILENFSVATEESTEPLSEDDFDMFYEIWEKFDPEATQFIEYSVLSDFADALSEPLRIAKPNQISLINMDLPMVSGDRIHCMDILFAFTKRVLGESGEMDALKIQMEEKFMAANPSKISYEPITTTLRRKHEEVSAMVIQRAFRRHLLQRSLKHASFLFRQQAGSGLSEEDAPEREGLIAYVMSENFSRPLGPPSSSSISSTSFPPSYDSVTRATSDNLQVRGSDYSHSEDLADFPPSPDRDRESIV
T11 sequence (Q15858 whole entry): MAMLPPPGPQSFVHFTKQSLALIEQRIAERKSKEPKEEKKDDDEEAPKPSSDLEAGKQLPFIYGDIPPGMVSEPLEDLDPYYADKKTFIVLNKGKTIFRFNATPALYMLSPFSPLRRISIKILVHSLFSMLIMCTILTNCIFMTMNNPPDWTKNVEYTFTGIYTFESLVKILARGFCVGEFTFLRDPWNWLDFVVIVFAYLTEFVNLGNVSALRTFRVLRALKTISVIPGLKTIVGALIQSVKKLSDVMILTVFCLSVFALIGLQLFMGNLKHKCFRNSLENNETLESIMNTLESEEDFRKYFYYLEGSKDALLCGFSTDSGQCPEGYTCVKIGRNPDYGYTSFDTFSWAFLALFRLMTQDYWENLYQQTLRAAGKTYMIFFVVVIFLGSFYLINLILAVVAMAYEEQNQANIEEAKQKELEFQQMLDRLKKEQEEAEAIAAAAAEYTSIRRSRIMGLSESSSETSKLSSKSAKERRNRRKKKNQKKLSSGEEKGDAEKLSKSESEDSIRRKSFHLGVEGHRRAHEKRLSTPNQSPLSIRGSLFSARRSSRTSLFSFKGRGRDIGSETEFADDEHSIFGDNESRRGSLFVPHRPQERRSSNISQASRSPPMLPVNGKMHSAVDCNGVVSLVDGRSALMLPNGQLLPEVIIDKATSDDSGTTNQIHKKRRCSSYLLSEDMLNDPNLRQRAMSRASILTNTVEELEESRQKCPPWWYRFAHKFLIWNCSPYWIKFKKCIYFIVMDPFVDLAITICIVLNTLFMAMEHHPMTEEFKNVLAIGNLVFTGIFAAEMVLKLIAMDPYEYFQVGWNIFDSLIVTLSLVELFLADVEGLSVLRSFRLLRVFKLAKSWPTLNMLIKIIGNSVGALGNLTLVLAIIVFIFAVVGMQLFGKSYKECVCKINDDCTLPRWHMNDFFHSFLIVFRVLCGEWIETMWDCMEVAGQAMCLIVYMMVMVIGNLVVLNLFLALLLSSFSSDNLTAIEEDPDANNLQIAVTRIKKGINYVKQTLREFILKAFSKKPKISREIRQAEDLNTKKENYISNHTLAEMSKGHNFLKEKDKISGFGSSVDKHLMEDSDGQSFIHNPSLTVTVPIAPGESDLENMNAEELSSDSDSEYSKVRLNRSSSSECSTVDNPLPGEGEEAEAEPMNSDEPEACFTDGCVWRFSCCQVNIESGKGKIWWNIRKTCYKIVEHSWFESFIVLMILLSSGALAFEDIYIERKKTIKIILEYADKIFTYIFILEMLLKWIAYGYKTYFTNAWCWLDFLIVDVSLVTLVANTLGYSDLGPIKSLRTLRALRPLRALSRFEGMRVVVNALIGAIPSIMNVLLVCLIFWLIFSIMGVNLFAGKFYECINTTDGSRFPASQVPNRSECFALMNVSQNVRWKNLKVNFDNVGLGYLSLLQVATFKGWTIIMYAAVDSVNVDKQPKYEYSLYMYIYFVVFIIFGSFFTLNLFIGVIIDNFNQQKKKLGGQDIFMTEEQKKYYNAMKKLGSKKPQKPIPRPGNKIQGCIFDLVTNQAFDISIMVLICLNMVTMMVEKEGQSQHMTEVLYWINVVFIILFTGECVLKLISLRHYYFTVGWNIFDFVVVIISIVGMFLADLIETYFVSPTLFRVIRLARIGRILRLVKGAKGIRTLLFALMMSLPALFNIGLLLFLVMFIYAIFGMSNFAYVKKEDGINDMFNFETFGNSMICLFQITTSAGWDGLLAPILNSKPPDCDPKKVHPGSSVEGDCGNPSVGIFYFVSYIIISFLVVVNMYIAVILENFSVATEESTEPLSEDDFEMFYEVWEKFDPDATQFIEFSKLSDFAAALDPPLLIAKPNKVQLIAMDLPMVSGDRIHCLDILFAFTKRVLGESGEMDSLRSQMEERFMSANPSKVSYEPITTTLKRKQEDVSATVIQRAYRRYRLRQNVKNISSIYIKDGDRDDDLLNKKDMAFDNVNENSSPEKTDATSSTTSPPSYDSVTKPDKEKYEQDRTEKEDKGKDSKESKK
T3 sequence (P43681 29-627): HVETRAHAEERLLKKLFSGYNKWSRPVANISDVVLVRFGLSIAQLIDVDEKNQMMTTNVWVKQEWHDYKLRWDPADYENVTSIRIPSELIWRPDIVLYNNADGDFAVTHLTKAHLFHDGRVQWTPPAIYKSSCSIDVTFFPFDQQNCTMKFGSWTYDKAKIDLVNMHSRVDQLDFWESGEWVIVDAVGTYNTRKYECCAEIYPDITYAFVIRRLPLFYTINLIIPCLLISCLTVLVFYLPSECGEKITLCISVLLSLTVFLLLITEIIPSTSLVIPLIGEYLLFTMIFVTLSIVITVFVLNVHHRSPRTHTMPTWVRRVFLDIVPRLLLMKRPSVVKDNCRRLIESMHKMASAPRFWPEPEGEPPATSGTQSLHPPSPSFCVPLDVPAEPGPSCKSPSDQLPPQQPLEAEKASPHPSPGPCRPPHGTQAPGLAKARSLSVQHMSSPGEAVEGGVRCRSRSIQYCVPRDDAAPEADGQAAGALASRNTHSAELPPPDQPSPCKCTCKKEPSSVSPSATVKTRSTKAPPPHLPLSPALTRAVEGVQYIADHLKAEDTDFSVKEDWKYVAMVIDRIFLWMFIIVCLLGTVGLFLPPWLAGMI
T3 sequence (P17787 26-502): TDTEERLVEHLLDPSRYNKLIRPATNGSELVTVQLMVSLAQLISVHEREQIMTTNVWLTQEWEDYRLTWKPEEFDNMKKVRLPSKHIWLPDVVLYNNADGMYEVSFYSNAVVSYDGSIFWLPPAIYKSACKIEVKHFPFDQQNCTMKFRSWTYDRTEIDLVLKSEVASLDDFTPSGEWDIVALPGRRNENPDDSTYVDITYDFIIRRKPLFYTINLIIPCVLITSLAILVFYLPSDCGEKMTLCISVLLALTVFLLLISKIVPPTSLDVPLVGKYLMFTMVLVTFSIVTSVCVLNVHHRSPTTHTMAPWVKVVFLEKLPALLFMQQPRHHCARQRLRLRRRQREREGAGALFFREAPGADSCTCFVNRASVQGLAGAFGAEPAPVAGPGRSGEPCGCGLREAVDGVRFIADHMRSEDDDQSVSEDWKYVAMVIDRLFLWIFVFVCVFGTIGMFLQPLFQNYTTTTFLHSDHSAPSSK

Substance: 25 (GSACLAEYQKCEGSTVPCCPGLSCSAGRFRKTKLCTK) [compound 25]
- Activity of 5HT3a with peptide (percentage of the reference compound) (5HT3a): 94%
- Activity of 5HT3a with peptide, expressed as a percentage of the reference compound (5HT3a): 82%
- Activity of a3b4 with peptide, expressed as a percentage of the reference compound (α3β4; peptide at 0.2 μM): 105%
- Activity of a3b4 with peptide (percentage of the reference compound) (α3β4; peptide at 20 μM): 91%
- Activity of a4b2 with peptide, expressed as a percentage of the reference compound (α4β2; peptide at 0.2 μM): 73%
- Activity of a4b2 with peptide (percentage of the reference compound) (α4β2; peptide at 20 μM): 75%
- Activity of Cav2.1 with peptide, expressed as a percentage of the reference compound (Cav2.1; peptide at 0.2 μM): 89%
- Activity of Cav2.1 with peptide (percentage of the reference compound) (Cav2.1; peptide at 20 μM): 109%
- Activity of Cav2.2 with peptide, expressed as a percentage of the reference compound (Cav2.2; peptide at 0.2 μM): 111%
- Activity of Cav2.2 with peptide (percentage of the reference compound) (Cav2.2; peptide at 20 μM): 111%
- Activity of Kv2.1 with peptide, expressed as a percentage of the reference compound (Kv2.1; peptide at 0.2 μM): 88%
- Activity of Kv2.1 with peptide (percentage of the reference compound) (Kv2.1; peptide at 20 μM): 107%
- Activity of GABA with peptide, expressed as a percentage of the reference compound (GABA; peptide at 0.2 μM): 111%
- Activity of GABA with peptide (percentage of the reference compound) (GABA; peptide at 20 μM): 98%
- Activity of Nav1.5 with peptide, expressed as a percentage of the reference compound (Nav1.5; [1]): 76%
- Activity of Nav1.5 with peptide, expressed as a percentage of the reference compound (Nav1.5; [2]): 74%
- Activity of Nav1.5 with peptide (percentage of the reference compound) (Nav1.5; [1]): 88%
- Activity of Nav1.5 with peptide (percentage of the reference compound) (Nav1.5; [2]): 87%
- Activity of hERG with peptide, expressed as a percentage of the reference compound (hERG; peptide at 0.2 μM): 76%
- Activity of hERG with peptide (percentage of the reference compound) (hERG; peptide at 20 μM): 79%
- Activity of Kir2.1 with peptide, expressed as a percentage of the reference compound (Kir2.1; peptide at 0.2 μM): 79%
- Activity of Kir2.1 with peptide (percentage of the reference compound) (Kir2.1; peptide at 20 μM): 98%
- Activity of Kv1.1 with peptide, expressed as a percentage of the reference compound (Kv1.1; peptide at 0.2 μM): 69%
- Activity of Kv1.1 with peptide (percentage of the reference compound) (Kv1.1; peptide at 20 μM): 77%
- Activity of Kv1.2 with peptide, expressed as a percentage of the reference compound (Kv1.2; peptide at 0.2 μM): 72%
- Activity of Kv1.2 with peptide (percentage of the reference compound) (Kv1.2; peptide at 20 μM): 85%
- Activity of Kv1.3 with peptide, expressed as a percentage of the reference compound (Kv1.3; peptide at 0.2 μM): 74%
- Activity of Kv1.3 with peptide (percentage of the reference compound) (Kv1.3; peptide at 20 μM): 87%
- Activity of Nav1.7 with peptide, expressed as a percentage of the reference compound (Nav1.7; [3]): 66%
- Activity of Nav1.7 with peptide, expressed as a percentage of the reference compound (Nav1.7; [4]): 54%
- Activity of Nav1.7 with peptide (percentage of the reference compound) (Nav1.7; [3]): 90%
- Activity of Nav1.7 with peptide (percentage of the reference compound) (Nav1.7; [4]): 83%
- Activity of NR2A with peptide, expressed as a percentage of the reference compound (NR2A; peptide at 0.2 μM): 94%
- Activity of NR2A with peptide (percentage of the reference compound) (NR2A; peptide at 20 μM): 106%
- Activity of NR2B with peptide, expressed as a percentage of the reference compound (NR2B; peptide at 0.2 μM): 99%
- Activity of NR2B with peptide (percentage of the reference compound) (NR2B; peptide at 20 μM): 94%
- Activity of TRPA1 with peptide, expressed as a percentage of the reference compound (TRPA1; peptide at 0.2 μM): 124%
- Activity of TRPA1 with peptide (percentage of the reference compound) (TRPA1; peptide at 20 μM): 129%
- Activity of TRPV1 with peptide, expressed as a percentage of the reference compound (TRPV1; peptide at 0.2 μM): 117%
- Activity of TRPV1 with peptide (percentage of the reference compound) (TRPV1; peptide at 20 μM): 113%
